Data taken from patent publication US7807387B2, “Biological agent that causes IL-6 receptor release” (Meyer Pharmaceuticals LLC, priority 2003, dated 2010).

How the values were obtained:
p55 TNF Receptor = p55 TNF Receptor (Homo sapiens, UniProt P19438); test: FRET peptide cleavage assay, p55 TNF receptor peptide; format: biochemical; conditions: Zn++ 0.1 mM, Ca++ 2 mM, corrected for EDTA, 37° C. for 3 hours
Method: (§1) Cytokine-specific proteolytic activity can rapidly be quantified by Fluorescence Resonance Energy Transfer (FRET). Peptides having the amino acid sequence of the TNF Receptor or other protein substrates are labeled at opposite ends with a fluorescence emitter and a fluorescence quencher. The peptide is then incubated with a source of receptor cleaving enzyme, and fluorescence is measured. The quenching group normally absorbs fluorescence from the emitter. But enzymatic cleavage of the peptide decouples the quenching group, and fluorescence emission increases proportionally.
(§2) The peptides used as substrates in the cleavage assay were taken from the known sites of proteolytic cleavage of the whole protein. The peptides were labeled with the fluorescence emitter (Edans-●) at the C-terminal, and the quenching hapten (Dabcyl-▴) at the N-terminal.
(§3) The assay is conducted in the presence of the metal cations Zn^++ (0.1 mM) and Ca^++ (2 mM), and corrected for cleavage in the presence of EDTA (20 mM). Dependence on divalent cations confirms that the enzyme activity measured in this assay is a metalloprotease. The assay mixture also contains a cocktail of protease inhibitors and bovine albumin. Cleavage is measured as the net change in fluorescence emission after incubating the enzyme with the peptide at 37° C. for 3 hours. […]

p75 TNF Receptor = molecular target: T1, p75 TNF Receptor (Homo sapiens, UniProt P20333); test: Cleavage of cell surface p75 TNF receptor on THP-1 cells; format: cell-based; conditions: 45 minutes at 37° C.
T1 construct: endogenous in cells; host or cells: THP-1
T1 sequence (P20333 23-461): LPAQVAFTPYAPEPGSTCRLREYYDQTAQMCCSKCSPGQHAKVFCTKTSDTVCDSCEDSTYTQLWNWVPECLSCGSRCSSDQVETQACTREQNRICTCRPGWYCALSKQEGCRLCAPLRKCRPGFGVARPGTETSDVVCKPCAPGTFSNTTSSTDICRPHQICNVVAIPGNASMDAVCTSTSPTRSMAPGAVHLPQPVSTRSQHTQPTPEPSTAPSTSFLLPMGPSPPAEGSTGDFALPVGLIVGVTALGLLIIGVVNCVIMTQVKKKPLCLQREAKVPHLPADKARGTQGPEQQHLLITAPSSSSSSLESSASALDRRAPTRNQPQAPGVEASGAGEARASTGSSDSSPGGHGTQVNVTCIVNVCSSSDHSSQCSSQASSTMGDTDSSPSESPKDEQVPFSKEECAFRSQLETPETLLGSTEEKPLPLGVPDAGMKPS
Method: This cell line expresses both the p55 TNF receptor and the p75 TNF receptor. After incubating for 45 minutes at 37° C., the cells were washed, immunostained for cell surface receptor, and counted by flow cytometry.

IL-6 Receptor = IL-6 Receptor (Homo sapiens, UniProt P08887); test: FRET peptide cleavage assay, IL-6 receptor peptide; format: biochemical; conditions: Zn++ 0.1 mM, Ca++ 2 mM, corrected for EDTA, 37° C. for 3 hours
Method: as §1, §2, §3

[1] = test system: experimentally induced Asthma; test: Experimentally induced asthma (ovalbumin sensitization and aerosol challenge); format: in vivo, mice; conditions: treatment 1 h before aerosol challenge, 24 h and 48 h afterwards; lavage at 72 h
Method: Mice were sensitized on Days 0, 7, and 14 with 10 μg ovalbumin in 1% aluminum hydroxide. On Day 21, the mice were challenged with the allergen in aerosol form (5% wt/vol in saline). Treatment with MP8 or control was administered 1 h before the aerosol challenge, and 24 h and 48 h afterwards. On Day 24 (72 h after the challenge), lungs were ravaged under anesthesia with 2×0.5 mL buffer to recover cells in the alveolar fluid.

[2] = Clearance of MP8 protein from the circulation by dot-blot analysis; format: in vivo; conditions: mice
[3] = test system: carrageenan-induced paw edema; test: Carrageenan-induced paw edema; format: in vivo, Sprague Dawley rats; conditions: given one hour before carrageenan; paw volume three hours later; MP8 subcutaneously, indomethacin by mouth
Method: Based on the standard model (Winter et al., Proc Soc Exp Biol Med 111:544, 1962; Hansra et al., Inflammation 24:141, 2000), the experiment was performed as follows. Male Sprague Dawley rats were randomized by weight into three treatment groups. The animals were administered MP8 or control solution subcutaneously, or indomethacin by mouth. One hour later, they were injected in the left hind paw with a sterile solution of 1% carrageenan suspension in water, in order to induce swelling. Three hours later, the volume of the injected paw was measured by water displacement in a water plethysmograph (mean±SEM; 10 animals per group).
Male Sprague Dawley rats were administered with test protein or indomethacin (anti-inflammatory control), and then challenged in a hind footpad with carrageenan, as in Example 12.

LPS-induced septic shock = test: LPS/galactosamine-induced septic shock model; format: in vivo, Balb/c mice
Method: A classic model for determining effectiveness of agents against cytokine-mediated inflammation is endotoxin-induced septic shock (Morrison et al., J Infect Dis 162:1063, 1990).
The septic shock experiment was conducted as follows. Female Balb/c mice were randomized by weight into 6 treatment groups. Sepsis was induced by injecting 10 μg LPS and 7 mg galactosamine in the lateral or dorsal caudal vein. Some of the groups were pretreated with 50,000 FU of MP8 simultaneously or 3 hours in advance of the LPS challenge to determine whether there was a protective effect.
FIG. 8 is a Kaplan-Meier survival curve, showing the mortality in each of the treatment groups in the study. Without any treatment or challenge, there is no effect on the animals, and the line stays at the top. Life-compromising challenge causes the line to fall to the bottom of the graph in a step-wise fashion as each animal succumbs. Treatment that is protective against the challenge maintains the line near the top of the graph.
The enzyme was administered in a volume of 110 μL at one hour before the LPS challenge.
Stability of the clinical effect of MP8 was determined in the septic shock model. Female Balb/c mice were injected with 300,000 FU of MP8 that had been stored for 4 days at −70° C., or 7 days at 4° C. One hour later, the mice were challenged with 10 μg LPS and 7 mg galactosamine as before.
In this example, durability of receptor cleavage in vivo was determined by treating animals subcutaneously up to three days in advance with 300,000 FU of MP8. The mice were then challenged with […] LPS and 7 mg galactosamine in the usual fashion.
Sepsis was induced in Balb/c mice by administering 10 μg LPS and […] galactosamine, as in Example 3. Randomized groups were pretreated with up to 40 μg MP8-FL2 one hours in advance of the LPS challenge.

B1: MP8: polypeptide having the sequence of SEQ. ID NO:41 (usually with a HIS tag); cytokine receptor releasing protein expressed in E. coli (protein, listed as Homo sapiens)
chain: WIQRIRHEGNSTVYEWRTGTEPSVVERPHLEELPEQVAEDAIDWGDFGVEAVSEGTDSGISAEAAGIDWGIFPESDSKDPGGDGIDWGDDAVALQITVLEAGTQAPEGVARGPDALTLLEYTETRNQFLDELMELEIFLAQRAVELSEEADVLSVSQFQLAPAILQGQTKEKMVTMVSVLEDLIGKLTSLQLQHLFMILASPRYVDRVTEFLQQKLKQSQLLALKKELMVQKQQEALEEQAALEPKLDLLLEKTKELQKLIEADISKRYSGRPVNLMGTSL
modifications: HIS tag
notes: ID NO:41 (usually with a HIS tag); cytokine receptor releasing protein expressed in E. coli
cleavage of p55 TNF receptor (R1) peptide (p55 TNF Receptor): cleaves
cleavage of p75 TNF receptor on the surface of cells (p75 TNF Receptor): cleaves
cleavage of IL-6 receptor peptide (IL-6 Receptor): high activity
proportion of eosinophils [1]: substantially reduced
white blood cells migrating into the alveolar fluid [1]: reduced the number of the white blood cells migrating into the alveolar fluid
first clearance half-time from the circulation [2]: ~39 h
inhibition of edema formation [3]: 62%
protection against LPS-induced septic shock (LPS-induced septic shock; 50,000 FU, simultaneously with LPS challenge or 3 hours in advance): fully protective
clinical efficacy in septic shock model after storage (LPS-induced septic shock; 300,000 FU stored 4 days at −70° C. or 7 days at 4° C., one hour before challenge): can be frozen without causing a loss in clinical efficacy
protection against septic shock when administered days in advance (LPS-induced septic shock; 300,000 FU subcutaneously up to three days in advance): able to protect most mice up to 3 days after administration
protection against LPS-induced septic shock (LPS-induced septic shock; 300,000 FU, one hour before LPS challenge): completely protective
protection against LPS-induced septic shock (LPS-induced septic shock; single dose of 30,000 FU, one hour before LPS challenge): able to protect a proportion of the challenged subjects
